Molecular target: human FAM19A5-Fc protein (Lot# 170815) (human, UniProt Q7Z5A7 44-132)
Experiment: cell-based or functional assay

Sequence of human FAM19A5-Fc protein (Lot# 170815) (Q7Z5A7 other isoform, or with tags, fused parts or gaps): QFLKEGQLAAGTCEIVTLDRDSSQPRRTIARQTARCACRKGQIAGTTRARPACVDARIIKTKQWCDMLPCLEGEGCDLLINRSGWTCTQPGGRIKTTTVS

B1: anti-FAM19A5 antibody (clone "1-30"; Lot# A5m180831) (antibody, V domains shown)
VH: AVTLDESGGGLQTPGGALRLSCKASGFDFESFNMFWVRQAPGKGLEYVSQISSSEEDENYAPAVKGRATISRDNGQSTLYLQMNSLRAEDTGTYYCAKSSYDCPYGHCSSGVDSAGEIDAWGHGTEVIVSS
VL: ALTQPSSVSANPGETVKITCSGGGSEEEQYYYGWYQQKPGSAPVTLIYQDEERPSDIPSRFSGSTSGSTATLTITGVQAGDEADYYCGSWDSEDEDHFGAGTTLTVL
  IC50 for inhibition of the FAM19A5-Fc-enhanced TNF-α production by LPS-stimulated BV2 cells (mouse TNF-α ELISA): 11.5 µg/mL

— patent US20220064277A1 (NEURACLE SCIENCE, published 2022)
